The record followed here is PMC10557143, “Promoter R-Loops Recruit U2AF1 to Modulate Its Phase Separation and RNA Splicing”.

Series [1] addresses T1, U2AF1 (human, UniProt Q01081 1-240).
T1 sequence: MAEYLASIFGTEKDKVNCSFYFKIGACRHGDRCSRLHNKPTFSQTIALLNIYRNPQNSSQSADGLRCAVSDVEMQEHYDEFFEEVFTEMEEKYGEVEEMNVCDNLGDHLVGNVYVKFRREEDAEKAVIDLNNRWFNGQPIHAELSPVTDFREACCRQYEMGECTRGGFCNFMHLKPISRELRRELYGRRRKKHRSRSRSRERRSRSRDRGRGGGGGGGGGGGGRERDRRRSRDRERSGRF
The experiment in a line: fluorescence anisotropy; 100 mM K+; Anisotropy: 10 nM probe, 10 mM Tris-HCl pH 7.5, 1 mM EDTA, 100 mM KCl, 0.1 mM DTT, 10 ug/mL BSA, 30 min on ice; EMSA same but Tris pH 8.0, 6% native PAGE in 1x. Particulars: protein: recombinant, tags: His6 (pET30a), label: 5' TAMRA.

The target of a further series is T2, U2AF1-ZF2 (human, UniProt Q01081 149-176).
T2 chain: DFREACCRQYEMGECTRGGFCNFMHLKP
The experiment in a line: fluorescence anisotropy; Anisotropy: 10 nM probe, 10 mM Tris-HCl pH 7.5, 1 mM EDTA, 100 mM KCl, 0.1 mM DTT, 10 ug/mL BSA, 30 min on ice; EMSA same but Tris pH 8.0, 6% native PAGE in 1x. The note with it: protein: recombinant; tags: His6 (pET30a); label: 5' TAMRA; parallel intramolecular G4. (Fluorescence polarisation rises when a labelled molecule tumbles more slowly, as on binding a larger partner.)

Series [2] deals with T1, U2AF1. The series is described as above. Particulars: protein: recombinant, tags: His6 (pET30a).

Where only a bound is given, the exact number is not on record here.

For AAAGGGTTAGGGTTAGGGTTAGGGAA (structured_DNA) [hTel_G4], in the series with U2AF1 [1] (hybrid-type intramolecular G4), the Kd (commonly the concentration at which binding is half-saturated) is 50 ± 6 nM. Regarding TGAGGGTGGGGAGGGTGGGGAAGG (structured_DNA) [cMYC_G4], the Kd with U2AF1 [1] (parallel intramolecular G4) was found to be 10.8 ± 0.9 nM. Further, the binding signal with U2AF1-ZF2 is > 10 fold lower affinity than full length.

B1: cMYC G4-R-loop (mixed)
?: GCGAGGGGCGGCCGGAGAGC
DNA 1: CCGCTCCGGCAGCTCAGGCCCTGGCGCTCTCCGGCCGCCCCTCGCCCGCCCGGGCTCCTCCTCCTGTGCC
DNA 2: GGCACAGGAGGAGGAGTTTTTTCTGAGGGTGGGGAGGGTGGGGAAGGCATTTTTTGAGCTGCCGGAGCGG
Take B1: in the series with U2AF1 [2] (label: 5' Cy3 on RNA strand, R-loop bubble: strand 1 RNA, strand 2 template DNA, strand 3 displaced DNA, some slow-migrating putative intermolecular G4), the Kd was found to be 3.5 nM.

B2: cMYC M4-R-loop (mixed)
?: GCGAGGGGCGGCCGGAGAGC
DNA 1: CCGCTCCGGCAGCTCAGGCCCTGGCGCTCTCCGGCCGCCCCTCGCCCGCCCGGGCTCCTCCTCCTGTGCC
DNA 2: GGCACAGGAGGAGGAGTTTTTTCTGAGGGTGAGGAGTGTGGGGAAGGCATTTTTTGAGCTGCCGGAGCGG
Turning to B2, the Kd with U2AF1 [2] (label: 5' Cy3 on RNA strand, R-loop bubble: strand 1 RNA, strand 2 template DNA, strand 3 displaced DNA) stood at 13 nM.

For TGAGGGTGAGGAGTGTGGGGAAGG (ssDNA) [cMYC_M4], the dissociation constant Kd with U2AF1 [1] was 22 ± 1 nM. As for AGGGAGGGCTCTGTGAGGAGGG (ssDNA) [cKIT_M4], in the series with U2AF1 [1], the equilibrium dissociation constant (Kd) came out at 19 ± 4 nM.

For UUUUAGGU (ssRNA) [U2AF1_RNA Motif (AG motif)], the Kd with U2AF1 [2] (label: 5' Cy3) came out at 350 nM.

B3: RNA/DNA hybrid (DNA:RNA)
?: GCGAGGGGCGGCCGGAGAGC
DNA: GCTCTCCGGCCGCCCCTCGC
For B3, the Kd with U2AF1 [2] (label: 5' Cy3 on RNA strand, blunt, strand 1 RNA, strand 2 DNA) was found to be 6.7 nM. As to AGGGAGGGCGCTGGGAGGAGGG (structured_DNA) [cKIT_G4], the Kd with U2AF1 [1] (parallel intramolecular G4) was 15 ± 2 nM. Take GGGTTAGGGTTAGGGTTAGGGT (structured_DNA) [2KF8_G4]: the Kd in the series with U2AF1 [1] (antiparallel intramolecular G4) was 9 ± 1 nM. Turning to AAAGGGTTAGTGTTAGTGTTAGGGAA (ssDNA) [hTel_M4], the Kd with U2AF1 [1] worked out at 60 ± 6 nM. As to GGGTTAGTGTTAGTGTTAGGGT (ssDNA) [2KF8_M4], the dissociation constant Kd in the series with U2AF1 [1] is 10 ± 2 nM.
